T1: MutS (Escherichia coli, UniProt P23909 1-853)
T1 sequence: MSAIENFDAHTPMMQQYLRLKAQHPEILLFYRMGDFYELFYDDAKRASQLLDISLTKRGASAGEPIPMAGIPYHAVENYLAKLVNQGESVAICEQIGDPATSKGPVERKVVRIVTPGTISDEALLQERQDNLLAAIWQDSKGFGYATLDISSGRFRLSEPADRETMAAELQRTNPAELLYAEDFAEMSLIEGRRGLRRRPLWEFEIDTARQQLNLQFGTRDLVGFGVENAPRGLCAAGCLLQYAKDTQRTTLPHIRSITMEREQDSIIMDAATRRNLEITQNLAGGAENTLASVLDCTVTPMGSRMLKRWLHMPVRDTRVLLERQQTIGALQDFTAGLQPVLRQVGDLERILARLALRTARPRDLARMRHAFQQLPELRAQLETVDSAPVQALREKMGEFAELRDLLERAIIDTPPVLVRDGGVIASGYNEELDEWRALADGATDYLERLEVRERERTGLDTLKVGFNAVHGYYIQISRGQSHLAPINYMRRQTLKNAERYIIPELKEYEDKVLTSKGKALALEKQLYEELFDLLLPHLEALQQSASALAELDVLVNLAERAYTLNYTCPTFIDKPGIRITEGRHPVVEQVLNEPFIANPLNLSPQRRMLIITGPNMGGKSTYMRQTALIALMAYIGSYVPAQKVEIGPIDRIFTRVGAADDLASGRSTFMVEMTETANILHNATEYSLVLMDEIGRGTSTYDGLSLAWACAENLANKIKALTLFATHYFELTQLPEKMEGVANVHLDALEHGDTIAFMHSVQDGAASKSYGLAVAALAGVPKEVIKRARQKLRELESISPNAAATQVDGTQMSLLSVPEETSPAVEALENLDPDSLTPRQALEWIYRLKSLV

B1: CC heteroduplex (dsDNA)
DNA 1: GACGAGCCGCCCGCTAGCGTCG
DNA 2: CGACGCTAGCGCGCGGCTCGTC
B2: CT heteroduplex (dsDNA)
DNA 1: GACGAGCCGCCCGCTAGCGTCG
DNA 2: CGACGCTAGCGTGCGGCTCGTC
B3: GT heteroduplex (dsDNA)
DNA 1: GACGAGCCGCGCGCTAGCGTCG
DNA 2: CGACGCTAGCGTGCGGCTCGTC

Target: T1, MutS
Test: impedance spectroscopy, CV

Binder | binding signal
B1 | 1050 Ohm/cm (Rct calibration slope as printed)
B2 | 1680 Ohm/cm (Rct calibration slope as printed)
B3 | 3380 Ohm/cm (Rct calibration slope as printed)

— publication PMC1483224
